Measurements from US10220090B2, “BCMA Antigen binding proteins” (Amgen Inc., priority 2012, dated 2019).

Tests used:
human BCMA = biological target: T1, human BCMA (Homo sapiens, UniProt Q02223, N81S); assay: FACS binding on cells transiently transfected to express full length BCMA
T1 construct: expressed in transfected cells
T1 sequence (Q02223 1-184 N81S): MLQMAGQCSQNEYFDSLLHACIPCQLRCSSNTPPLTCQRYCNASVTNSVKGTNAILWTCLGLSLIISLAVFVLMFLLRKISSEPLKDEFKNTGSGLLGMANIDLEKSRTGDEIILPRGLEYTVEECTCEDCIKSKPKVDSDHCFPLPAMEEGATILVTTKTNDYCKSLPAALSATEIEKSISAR
Method: An important criterion is exquisite selectivity for wild-type human BCMA expressed on the surface of cells. FACS binding on cells transiently transfected to express full length BCMA, TACI, or BAFF-R was performed using standard techniques. Approximately 40×10^6 of the transiently-transfected target cells were resuspended in a staining solution (2% goat serum, 1% rabbit serum, 0.02% azide in PBS) and aliquoted into round-bottom, 96-well plate (Corning Incorp., Acton, Mass.) as per the experiment design. The cells were incubated at 4 degrees celsius for 30 minutes to block non-specific sites. The antibodies were titrated into the staining solution. The cells were rinsed in a rinse solution (PBS+0.02% azide) by resuspending the cells in 200 ul/well. The cells were centrifuged at 1500 rpm at 4 degrees celsius for 7 minutes. The rinse solution was removed and the rinse step was repeated. The cells were resuspended in the appropriate antibody solution (see the matrix in TABLE 4) at 30 ul/well and incubated at 4 degrees celsius for 30 minutes. […] For the mouse IgG1 negative control and the two mouse antibodies (1.183 and 1.288), the secondary reagent was an anti-mouse IgG-PE conjugate (BD Pharmingen Cat. 550589). The cells/antibodies were rinsed as described above to remove excess/unbound antibody. […] Samples were read at 532 nm wavelength on FACS. […]

BCMA on H929 cells = biological target: T2, BCMA on H929 cells (Homo sapiens, UniProt Q02223, N81S); assay: FACS binding to native BCMA on H929 myeloma cells
T2 construct: host or cells: H929
T2 sequence (Q02223 1-184 N81S): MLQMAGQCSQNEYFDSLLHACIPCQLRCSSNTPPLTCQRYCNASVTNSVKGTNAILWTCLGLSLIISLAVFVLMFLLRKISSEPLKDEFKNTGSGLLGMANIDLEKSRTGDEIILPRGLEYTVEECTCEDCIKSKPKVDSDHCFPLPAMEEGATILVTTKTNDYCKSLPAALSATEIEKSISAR
Method: Approximately 10 to 40×10^6 of H929 myeloma cells were resuspended in a staining solution (2% goat serum, 1% rabbit serum, 0.02% azide in PBS) and aliquoted into round-bottom, 96-well plate (Corning Incorp., Acton, Mass.) as per the experiment design. The cells were incubated at 4 degrees celsius for 30 minutes to block non-specific sites. The antibodies were titrated into the staining solution. The cells were rinsed in a rinse solution (PBS+0.02% azide) by resuspending the cells in 200 ul/well. The cells were centrifuged at 1500 rpm at 4 degrees celsius for 7 minutes. The rinse solution was removed and the rinse step was repeated. […] The cells/antibodies were rinsed as described above to remove excess/unbound antibody. After the last rinse, the cells were resuspended in 200 ul of rinse solution with a drop of staining solution added to keep the cells from aggregating.
The antibodies were tested for binding to BCMA endogenously-expressed on a variety of cells, including the H929 cell line, which were developed from B-lymphocytes from a myeloma/plasmacytoma patient (ATCC, Manassa, Va.) using standard FACs techniques. […] The supernatants were removed and the cell pellets were resuspended in 0.2 mL/tube 4% paraformaldehyde in PBS and analyzed by flow cytometry

H929 = assay: CellTiter-Glo Luminescent Cell Viability Assay, H929; assay type: cell-based, human; details: ADCs of hybridoma-derived antibodies
Method: The ADCs were tested for the ability to target and kill BCMA-expressing myeloma cells. The CellTiter-Glo® Luminescent Cell Viability Assay is a homogeneous method to determine the number of viable cells in culture based on quantitation of the ATP present, which signals the presence of metabolically active cells. The CellTiter-Glo® Assay is applicable to cytotoxicity assays (see http://www.promega.com/products/cell-health-assays/cell-viability-assays/celltiter_glo-luminescent-cell-viability-assay/for more information). The cell viability assay was used to assess the relative killing capacity of various ADCs on various multiple myeloma cell lines and B-cell lines. The protocol provided in the Cell Titer-Glo kit (Promega G7572) was followed. […] The ADCs were diluted into a 10× stock to create 500 nM maytansine drug equivalents. […] 10 ul of the 10×ADC dilution series was added to the 90 ul of cells in media (triplicate wells). The highest concentration of ADC was approximately 50 nM maytansine drug equivalents, and the lowest concentration of ADC was approximately 50 pM maytansine drug equivalents. An isotype control ADC (an anti-streptavidin huIgG1 conjugated to MCC-DM1) was included, as well as a media-only control. The plates were incubated at 37° C., 5% CO2 for 96 hours. After incubation, 100 ul of the Substrate Solution (Promega G7572) was added to each well. Luminescence was read on an EnVision™ Multilabel reader (PerkinElmer) or Analyst HT plate reader (LJL Biosciences). The data was analyzed and graphed using GraphPad Prism™ to determine the relative efficacy of the ADCs on various cancer cell lines.
The 2A1CV5-MCC-DM1, 32B5-MCC-DM1 and 29C12-MCC-DM1 ADCs were tested for the ability to target and kill BCMA-expressing myeloma cells (H929). The CellTiter-Glo® Luminescent Cell Viability Assay is a homogeneous method to determine the number of viable cells in culture based on quantitation of the ATP present, which signals the presence of metabolically active cells. The CellTiter-Glo® Assay is applicable to cytotoxicity assays (see http://www.promega.com/products/cell-health-assays/cell-viability-assays/celltiter_glo-luminescent-cell-viability-assay/for more information). The cell viability assay was used to assess the relative killing capacity of various ADCs on various multiple myeloma cell lines and B-cell lines. The protocol provided in the Cell Titer-Glo kit (Promega G7572) was followed. […] The ADCs were diluted into a 10× stock to create 500 nM maytansine drug equivalents. […] 10 ul of the 10×ADC dilution series was added to the 90 ul of cells in media (triplicate wells). The highest concentration of ADC was approximately 50 nM maytansine drug equivalents, and the lowest concentration of ADC was approximately 50 pM maytansine drug equivalents. An isotype control ADC (an anti-streptavidin huIgG1 conjugated to MCC-DM1) was included, as well as a media-only control. The plates were incubated at 37° C., 5% CO2 for 96 hours. After incubation, 100 ul of the Substrate Solution (Promega G7572) was added to each well. Luminescence was read on an EnVision™ Multilabel reader (PerkinElmer) or Analyst HT plate reader (LJL Biosciences). The data was analyzed and graphed using GraphPad Prism™ to determine the relative efficacy of the ADCs on various cancer cell lines.

Molecule | BCMA (FACS binding) (human BCMA) | binding to human BCMA on the surface of H929 myeloma cell line (BCMA on H929 cells) | cytotoxicity to huBCMA-expressing myeloma target cells (H929) (H929)
Ab-4: fully human anti-huBCMA mAb, Vh SEQ ID NO:212, Vl SEQ ID NO:246 (antibody, V domains shown) VH: QVQLVQSGAEVKKPGASVKVSCKASGYTFTGHYIHWVRQAPGQGLEWMGWIYPNSGGTNYAQKFQGRVTMTRDTSISTAYMELSRLRSDDSAVYYCAREGMVTGDYYYYRMDVWGQGTTVIVSS VL: QPVLTQPPSASASLGASVTLTCSLSSGYSNYKVDWYQQRPGKGPRFVMRVGIGGIVGSKGDGIPDRFSVLGSGLNRYLTIKNIQEEDESDFHCGADHGSGNNFVYVFGTGTKVTVLG | + (A sample was considered positive for binding if the MFI was two times the negative control value) | bound to human BCMA | –
29C12.1 ADC (conjugate) VH: EVQLLESGGALVQPGGSLRLSCAASGFTFSSYAMNWVRQAPGKGLEWVSAISVGGDTYYADSVKGRFTISRDNSKNTLYLQMNSLRAEDTAVYYCAKDQVTMVRGVWYYYGLDVWGQGTTVTVSS VL: DIVMIQSPLSLPVTPGEPASISCRSSQSLLHSNGNNYLDWYLQKPGQSPHLLISLGSNRTSGVPDRFSGSGSGTDFTLKISRVEAEDVGVYYCMQALQPPRRFGQGTKLEIKR | – | – | showed cytotoxicity
35D2.1 ADC (conjugate) VH: EVQLLESGGALVQPGGSLRLSCAASGFTFSSYAMNWVRQAPGKGLEWVSAISVGGGTYYADSVKGRFTISRDNSKNTLYLHVNSLRAEDTAVYYCAKDQVTMVRGVWYYYGLDVWGQGTTVTVSS VL: VIVLIQSPLSLPVTPGEPASISCRSSQSLLHSNGNNYLDWYLQKPGQSPHLLISLGSNRTSGVPDRFSGSGSGTDFTLKISRVEAEDVGFYYCMQALQPPRRFGQGTKLEIKR | – | – | showed cytotoxicity
32B5.1 ADC (conjugate) VH: EVQLLESGGALVQPGGSLRLSCAASGFTFSSYAMNWVRQAPGKGLEWVSAISVGGDTYYADSVKGRFTISRDNSKNTLYLHVNSLSAEDSAVYYCAKDQVTLVRGVWYYYGLDVWGQGTTVTVSS VL: VIVLIQSPLSLPVTPGEPASISCRSSQSLLHSNGNNYLDWYLQKPGQSPHLLISLGSNRTSGVPDRFSGSGSGTDFTLKISRVEAEDVGFYYCMQALQPPRRFGQGTKLEIKR | – | – | showed cytotoxicity
40D7.1 ADC (conjugate) VH: EVQLLESGGALVQPGGSLRLSCAASGFTFSSYAMNWVRQAPGKGLEWVSAISVGGDTYYADSVKGRFTISRDNSKNTLYLQMNSLRAEDTAVYYCAKDQVTMVRGVWYYYGLDVWGQGTTVTVSS VL: DIVMIQSPLSLPVTPGEPASISCRSSQSLLHSNGNNFLDWYLQKPGQSPHLLISLGSNRTSGVPDRLSGSGSGTDFTLKISRVEAEDVGIYYCMQALRPPRRFGQGTKLEIKR | – | – | showed cytotoxicity
33C7.1 ADC (conjugate) VH: EVQLLESGGALVQPGGSLRLSCAASGFTFSSYAMNWVRQAPGKGLEWVSAISVGGDTYYADSVKGRFTISRDNSKNTLYLHVNSLSAEDSAVYYCAKDQVTLVRGVWYYYGLDVWGQGTTVTVSS VL: VIVLIQSPLSLPVTPGEPASISCRSSQSLLHSNGNNYLDWYLQKPGQSPHLLISLGSNRTSGVPDRFSGSGSGTDFTLKISRVEAEDVGFYYCMQALQPPRRFGQGTKLEIKR | – | – | showed cytotoxicity
37B2.1 ADC (conjugate) VH: EVQLLESGGALVQPGGSLRLSCAASGFTFSNYAMNWVRQAPGKGLEWVSAISVGGDTYYADSVKGRFTISRDNSKNTLYLHVNSLSAEDSAVYYCAKDQVTLVRGVWYYYGLDVWGQGTTVTVSS VL: VIVLIQSPLSLPVTPGEPASISCRSSQSLLHSNGNNYLDWYLQKPGQSPHLLISLGSNRTSGVPDRFSGSGSGTDFTLKISRVEAEDVGFYYCMQALQPPRRFGQGTKLEIKR | – | – | showed cytotoxicity
